In experiment [1] the target is T1, recombinant human VISTA (His-tagged) (human, UniProt Q9H7M9 33-194).
T1 construct: bought soluble protein (Sino Biological); also called hVISTA; human VISTA polypeptide
The experiment in a line: ELISA, plate coated with human VISTA; unit nM from the legend paragraph 698. On the technique in general: ELISA stands for enzyme-linked immunosorbent assay.

Experiment [2] deals with T2, recombinant mouse VISTA (His-tagged) (mouse, UniProt Q9D659 33-191).
T2 construct: also called murine VISTA; mVISTA
T2 sequence (looked up): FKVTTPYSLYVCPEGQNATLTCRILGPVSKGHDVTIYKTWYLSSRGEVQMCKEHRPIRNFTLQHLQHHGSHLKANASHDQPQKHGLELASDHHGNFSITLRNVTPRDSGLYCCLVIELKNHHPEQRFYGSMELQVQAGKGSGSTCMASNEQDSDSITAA
As to the kind of experiment: ELISA, plate coated with mouse VISTA; unit nM from the legend paragraph 698.

In a further experiment the target is T3, human B7H3 (human, UniProt Q5ZPR3 29-461, limits assumed).
T3 construct: also called CD276
T3 sequence (looked up): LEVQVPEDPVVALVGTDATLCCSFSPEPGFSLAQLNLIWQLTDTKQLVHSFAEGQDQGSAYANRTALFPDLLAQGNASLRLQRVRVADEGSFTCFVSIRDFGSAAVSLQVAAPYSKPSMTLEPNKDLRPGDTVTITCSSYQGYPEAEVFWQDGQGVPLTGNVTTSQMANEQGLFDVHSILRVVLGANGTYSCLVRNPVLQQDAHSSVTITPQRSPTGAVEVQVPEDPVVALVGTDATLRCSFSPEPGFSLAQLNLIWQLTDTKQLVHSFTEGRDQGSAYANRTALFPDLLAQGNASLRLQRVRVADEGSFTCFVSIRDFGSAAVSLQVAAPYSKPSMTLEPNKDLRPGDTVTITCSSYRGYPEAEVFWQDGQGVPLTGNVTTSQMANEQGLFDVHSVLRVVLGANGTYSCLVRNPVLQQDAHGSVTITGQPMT
As to the kind of experiment: ELISA, plate coated with the antigen.

The next experiment concerns the target T4, human B7H7 (human, UniProt Q9UM44 23-344).
T4 construct: also called HHLA2
T4 sequence (looked up): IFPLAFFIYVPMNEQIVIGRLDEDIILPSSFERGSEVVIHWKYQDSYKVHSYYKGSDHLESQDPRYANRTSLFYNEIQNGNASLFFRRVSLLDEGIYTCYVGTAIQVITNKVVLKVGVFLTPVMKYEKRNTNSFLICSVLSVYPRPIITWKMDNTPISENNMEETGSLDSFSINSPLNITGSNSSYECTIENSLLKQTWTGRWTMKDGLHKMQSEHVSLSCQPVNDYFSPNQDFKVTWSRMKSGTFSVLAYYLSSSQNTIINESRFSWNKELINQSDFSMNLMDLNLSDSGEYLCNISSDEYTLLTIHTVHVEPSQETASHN
As to the kind of experiment: ELISA, plate coated with the antigen.

A further experiment addresses human CTLA4 (human, UniProt P16410 36-162). The experiment in a line: ELISA, plate coated with the antigen.
In another experiment the target is human PD-1 (human, UniProt Q15116 25-167). The experiment in a line: ELISA, plate coated with the antigen.
Another experiment has as its target T5, human B7H6 (human, UniProt Q68D85 25-262).
T5 construct: also called NCR3LG1
T5 sequence (looked up): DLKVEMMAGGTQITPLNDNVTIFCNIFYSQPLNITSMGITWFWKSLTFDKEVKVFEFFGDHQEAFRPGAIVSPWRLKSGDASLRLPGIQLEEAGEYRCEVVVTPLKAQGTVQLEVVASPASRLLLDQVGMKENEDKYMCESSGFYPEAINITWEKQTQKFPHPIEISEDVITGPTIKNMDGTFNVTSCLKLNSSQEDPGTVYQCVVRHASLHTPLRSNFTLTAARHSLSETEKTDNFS
As to the kind of experiment: ELISA, plate coated with the antigen.

The target in a further experiment is T6, human B7H4 (human, UniProt Q7Z7D3 25-258, limits assumed).
T6 construct: also called VTCN1
T6 sequence (looked up): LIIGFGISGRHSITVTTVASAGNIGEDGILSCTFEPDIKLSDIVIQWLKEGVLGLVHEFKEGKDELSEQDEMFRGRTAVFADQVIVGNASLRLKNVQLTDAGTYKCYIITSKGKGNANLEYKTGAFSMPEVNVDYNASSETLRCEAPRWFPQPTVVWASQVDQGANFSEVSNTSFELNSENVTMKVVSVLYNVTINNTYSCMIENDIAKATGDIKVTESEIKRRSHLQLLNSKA
As to the kind of experiment: ELISA, plate coated with the antigen.

In experiment [3] the target is T1, recombinant human VISTA (His-tagged). The experiment in a line: ELISA, plate coated with human VISTA.
The target in experiment [4] is T7, recombinant rat VISTA (His-tagged) (rat, UniProt A0ABK0L5H3 33-192).
T7 sequence: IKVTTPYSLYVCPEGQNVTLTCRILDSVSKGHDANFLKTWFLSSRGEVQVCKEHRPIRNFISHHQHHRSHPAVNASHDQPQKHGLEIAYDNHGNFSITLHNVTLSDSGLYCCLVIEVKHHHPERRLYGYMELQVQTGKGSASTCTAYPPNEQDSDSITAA
The experiment in a line: ELISA, plate coated with rat VISTA.

Experiment [5] concerns the target T1, recombinant human VISTA (His-tagged). The experiment in a line: ELISA, plate coated with human VISTA; unit nM from the legend paragraph 697.
Another experiment has as its target T8, human PD-L1 (human, UniProt Q9NZQ7 19-239).
T8 construct: captured through a His tag in the BLI experiments; also called hPD-L1; B7H1/PDL-1
The experiment in a line: BLI (Octet), His-tagged human PD-L1 on anti-Penta-HIS biosensor, antibody 500-15.6 nM. (In general: Biolayer interferometry detects binding as a change in optical thickness at a sensor tip.)

For experiment [6], the target named is T1, recombinant human VISTA (His-tagged). The experiment in a line: ELISA, plate coated with human VISTA. This is another data set of the same source.
The target of experiment [7] is T2, recombinant mouse VISTA (His-tagged). As to the kind of experiment: ELISA, plate coated with mouse VISTA; unit nM from the legend paragraph 697.
The target is the same in experiment [8]. As to the kind of experiment: ELISA, plate coated with mouse VISTA.
For experiment [9], the target named is T9, recombinant cynomolgus macaque VISTA (His-tagged) (cynomolgus macaque, UniProt A0A7N9IB00 33-194).
T9 construct: also called cyno VISTA; cynomolgus monkey VISTA
The experiment in a line: ELISA, plate coated with cyno VISTA.

In experiment [10] the target is T2, recombinant mouse VISTA (His-tagged). The experiment in a line: BLI (Octet), 1:1 global fit, His-tagged mouse VISTA captured.
Experiment [11] deals with T1, recombinant human VISTA (His-tagged). The experiment in a line: BLI (Octet), 1:1 global fit, His-tagged human VISTA captured.
Experiment [12] addresses T2, recombinant mouse VISTA (His-tagged). The experiment in a line: BLI (Octet), 1:1 global fit, His-tagged mouse VISTA captured. This is another data set of the same source.
The target in experiment [13] is T10, mouse VISTA expressed on cells (mouse, UniProt Q9D659 33-308).
T10 construct: whole, on cells; also called murine VISTA on transfected cells; VISTA on mouse CD11b+ myeloid cells
T10 sequence (looked up): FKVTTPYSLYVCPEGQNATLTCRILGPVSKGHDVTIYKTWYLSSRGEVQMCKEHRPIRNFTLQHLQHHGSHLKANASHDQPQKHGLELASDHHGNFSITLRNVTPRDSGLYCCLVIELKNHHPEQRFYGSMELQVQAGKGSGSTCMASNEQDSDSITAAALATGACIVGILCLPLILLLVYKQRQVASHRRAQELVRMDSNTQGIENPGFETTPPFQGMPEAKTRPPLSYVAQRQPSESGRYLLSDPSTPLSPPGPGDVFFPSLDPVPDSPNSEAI
The experiment in a line: flow cytometry on cells transfected with murine VISTA. A general note: In flow cytometry, cells or beads pass a laser one at a time.

Where two headings read alike, the source gives them in different places.

The term EC50 denotes the midpoint of the concentration-response curve. One may read the EC50 (read off the curve) as the concentration needed to bring the measured effect to its halfway point. The Kd is the constant that tells how readily two partners part at equilibrium. In general, koff refers to the first-order rate constant of dissociation. For orientation: kon means the rate constant with which the complex forms.

Sequence of human PD-1 (Q15116 25-167 limits assumed): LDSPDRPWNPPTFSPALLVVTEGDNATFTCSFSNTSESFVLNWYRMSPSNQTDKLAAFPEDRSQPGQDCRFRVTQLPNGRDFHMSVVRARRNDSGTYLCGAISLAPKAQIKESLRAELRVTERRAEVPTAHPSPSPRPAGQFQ
T8 sequence (Q9NZQ7 19-239 limits assumed): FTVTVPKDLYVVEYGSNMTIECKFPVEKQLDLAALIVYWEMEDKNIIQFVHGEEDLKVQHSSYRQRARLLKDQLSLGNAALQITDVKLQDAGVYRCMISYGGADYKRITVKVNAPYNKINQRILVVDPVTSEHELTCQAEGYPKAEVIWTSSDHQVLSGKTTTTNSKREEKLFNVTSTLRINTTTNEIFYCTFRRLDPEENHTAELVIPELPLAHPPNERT
Sequence of human CTLA4 (P16410 36-162 limits assumed): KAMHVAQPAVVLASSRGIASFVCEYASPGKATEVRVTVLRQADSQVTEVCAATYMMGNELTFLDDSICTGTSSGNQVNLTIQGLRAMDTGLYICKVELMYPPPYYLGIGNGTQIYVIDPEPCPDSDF
Method for human PD-L1: Finally, the biosensors were incubated for 120 sec in PBS pH 7.2 to obtain the dissociation curves. Kinetic and affinity constants were calculated by global fitting of the association and dissociation data to a 1:1 binding model.

B1: anti-VISTA clone V4-C31 IgG1 (antibody, V domains shown)
VH: QVQLQESGPGLVKPSDTLSLTCTVSGYSITSDYTWNWIRQTPGKGLEWIGHITYSGSVSYNPSLRSRVTISRDTSKNQFSLKLSSVTAADTATYSCARALYYPWYFDVWGTGTTVTVSS
VL: EIVLTQSPATLSLSPGERATLSCRASSSVGYIHWYQQKPGQAPRPLIYATYYRTTGIPARFSGSGSGTDNTLTISSLEPEDSAVYYCQQWSSYPPITFGGGTKLEVKR
With B1, the concentration giving a half-maximal response (EC50) in [1] was determined as 0.02 nM; in experiment [2], 0.028 nM; in experiment [3], 0.0408 nM; in experiment [4], 0.224 nM; in experiment [5], 0.0032 nM; in experiment [7], 0.003 nM. Further, the EC50 in [8] turned out to be 0.04 nM; in experiment [9], 0.0321 nM. Besides, the binding result in the experiment with human B7H3, with human B7H7, with human CTLA4, with human PD-1, in the experiment with human B7H6 and with human B7H4 was “no binding (tested: log -7.5 M)” in each case. For the same molecule, in the experiment with human PD-L1, the binding result was “no binding (tested: 500 nM)”. In addition, the half-maximal effective concentration (EC50 (read off the curve)) in [6] is approximately 0.02 nM. Besides, the Kd in experiment [10], in experiment [11] and in experiment [12] was less than 0.001 nM throughout. The koff in experiment [10], in [11] and in experiment [12] was less than 1e-07 s⁻¹ in each case. The figures for the kon in experiment [10], in experiment [11] and in experiment [12] were 570000 M⁻¹ s⁻¹, 623000 M⁻¹ s⁻¹ and 344000 M⁻¹ s⁻¹, respectively.

B2: anti-VISTA clone 13D5p IgG1 (antibody, V domains shown)
VH: QVQLQQSGAELVRPGTSVKISCKASGYTFTNYWLGWVKQRPGHGLEWIGDIYPGGGYTNYNEKFKGKATLTADTSSSTAYMQLSSLTSEDSAVYFCARGGYYYGSSWYFDVWGAGTTVTVSS
VL: DVLMTQTPLSLPVSLGDQASISCRSSQSIVHSNGNTYLEWYLQKPGQSPKLLIYKVSNRFSGVPDRFSGSGSGTDFTLKISRVEAEDLGVYYCFQGSHVPPTFGGGTKLEIKR
Regarding B2, the binding result in experiment [13] is on record as “binds”.
